Experimental data from patent CN114591430A.

Experiments:
牛血清白蛋白(BSA) (bovine) [1] = target: 牛血清白蛋白(BSA) (bovine) (UniProt P02769); experiment: ELISA, BSA coated at 1 ug/ml, biotin-labelled antibody at dilution 1K, HRP-avidin
牛血清白蛋白(BSA) (bovine) [2] = target: 牛血清白蛋白(BSA) (bovine) (UniProt P02769); experiment: ELISA, BSA coated at 1 ug/ml, biotin-labelled antibody at dilution 32K, HRP-avidin
牛血清白蛋白(BSA) (bovine) [3] = target: 牛血清白蛋白(BSA) (bovine) (UniProt P02769); experiment: ELISA, BSA coated at 1 ug/ml, biotin-labelled antibody at dilution 16K, HRP-avidin
牛血清白蛋白(BSA) (bovine) [4] = target: 牛血清白蛋白(BSA) (bovine) (UniProt P02769); experiment: indirect ELISA, BSA coated at 1 ug/ml, purified antibody at dilution 8K, HRP goat anti-mouse IgG
牛血清白蛋白(BSA) (bovine) [5] = target: 牛血清白蛋白(BSA) (bovine) (UniProt P02769); experiment: ELISA, BSA coated at 1 ug/ml, biotin-labelled antibody at dilution 1024K, HRP-avidin
牛血清白蛋白(BSA) (bovine) [6] = target: 牛血清白蛋白(BSA) (bovine) (UniProt P02769); experiment: indirect ELISA, BSA coated at 1 ug/ml, purified antibody at dilution 128K, HRP goat anti-mouse IgG
牛血清白蛋白(BSA) (bovine) [7] = target: 牛血清白蛋白(BSA) (bovine) (UniProt P02769); experiment: ELISA, BSA coated at 1 ug/ml, biotin-labelled antibody at dilution 128K, HRP-avidin
牛血清白蛋白(BSA) (bovine) [8] = target: 牛血清白蛋白(BSA) (bovine) (UniProt P02769); experiment: ELISA, BSA coated at 1 ug/ml, biotin-labelled antibody at dilution 8K, HRP-avidin
牛血清白蛋白(BSA) (bovine) [9] = target: 牛血清白蛋白(BSA) (bovine) (UniProt P02769); experiment: indirect ELISA, BSA coated at 1 ug/ml, purified antibody at dilution 4K, HRP goat anti-mouse IgG
牛血清白蛋白(BSA) (bovine) [10] = target: 牛血清白蛋白(BSA) (bovine) (UniProt P02769); experiment: ELISA, BSA coated at 1 ug/ml, biotin-labelled antibody at dilution 64K, HRP-avidin
牛血清白蛋白(BSA) (bovine) [11] = target: 牛血清白蛋白(BSA) (bovine) (UniProt P02769); experiment: ELISA, BSA coated at 1 ug/ml, biotin-labelled antibody at dilution 4K, HRP-avidin
牛血清白蛋白(BSA) (bovine) [12] = target: 牛血清白蛋白(BSA) (bovine) (UniProt P02769); experiment: indirect ELISA, BSA coated at 1 ug/ml, purified antibody at dilution 1K, HRP goat anti-mouse IgG
牛血清白蛋白(BSA) (bovine) [13] = target: 牛血清白蛋白(BSA) (bovine) (UniProt P02769); experiment: indirect ELISA, BSA coated at 1 ug/ml, purified antibody at dilution 32K, HRP goat anti-mouse IgG
牛血清白蛋白(BSA) (bovine) [14] = target: 牛血清白蛋白(BSA) (bovine) (UniProt P02769); experiment: ELISA, BSA coated at 1 ug/ml, biotin-labelled antibody at dilution 2K, HRP-avidin
牛血清白蛋白(BSA) (bovine) [15] = target: 牛血清白蛋白(BSA) (bovine) (UniProt P02769); experiment: indirect ELISA, BSA coated at 1 ug/ml, purified antibody at dilution 64K, HRP goat anti-mouse IgG
牛血清白蛋白(BSA) (bovine) [16] = target: 牛血清白蛋白(BSA) (bovine) (UniProt P02769); experiment: indirect ELISA, BSA coated at 1 ug/ml, purified antibody at dilution 256K, HRP goat anti-mouse IgG
牛血清白蛋白(BSA) (bovine) [17] = target: 牛血清白蛋白(BSA) (bovine) (UniProt P02769); experiment: indirect ELISA, BSA coated at 1 ug/ml, purified antibody at dilution 1024K, HRP goat anti-mouse IgG
牛血清白蛋白(BSA) (bovine) [18] = target: 牛血清白蛋白(BSA) (bovine) (UniProt P02769); experiment: ELISA, BSA coated at 1 ug/ml, biotin-labelled antibody at dilution 256K, HRP-avidin
牛血清白蛋白(BSA) (bovine) [19] = target: 牛血清白蛋白(BSA) (bovine) (UniProt P02769); experiment: ELISA, BSA coated at 1 ug/ml, biotin-labelled antibody at dilution 512K, HRP-avidin
牛血清白蛋白(BSA) (bovine) [20] = target: 牛血清白蛋白(BSA) (bovine) (UniProt P02769); experiment: indirect ELISA, BSA coated at 1 ug/ml, purified antibody at dilution 16K, HRP goat anti-mouse IgG
牛血清白蛋白(BSA) (bovine) [21] = target: 牛血清白蛋白(BSA) (bovine) (UniProt P02769); experiment: indirect ELISA, BSA coated at 1 ug/ml, purified antibody at dilution 2K, HRP goat anti-mouse IgG
牛血清白蛋白(BSA) (bovine) [22] = target: 牛血清白蛋白(BSA) (bovine) (UniProt P02769); experiment: indirect ELISA, BSA coated at 1 ug/ml, purified antibody at dilution 512K, HRP goat anti-mouse IgG

UniProt P02769, sequence (P02769 25-607): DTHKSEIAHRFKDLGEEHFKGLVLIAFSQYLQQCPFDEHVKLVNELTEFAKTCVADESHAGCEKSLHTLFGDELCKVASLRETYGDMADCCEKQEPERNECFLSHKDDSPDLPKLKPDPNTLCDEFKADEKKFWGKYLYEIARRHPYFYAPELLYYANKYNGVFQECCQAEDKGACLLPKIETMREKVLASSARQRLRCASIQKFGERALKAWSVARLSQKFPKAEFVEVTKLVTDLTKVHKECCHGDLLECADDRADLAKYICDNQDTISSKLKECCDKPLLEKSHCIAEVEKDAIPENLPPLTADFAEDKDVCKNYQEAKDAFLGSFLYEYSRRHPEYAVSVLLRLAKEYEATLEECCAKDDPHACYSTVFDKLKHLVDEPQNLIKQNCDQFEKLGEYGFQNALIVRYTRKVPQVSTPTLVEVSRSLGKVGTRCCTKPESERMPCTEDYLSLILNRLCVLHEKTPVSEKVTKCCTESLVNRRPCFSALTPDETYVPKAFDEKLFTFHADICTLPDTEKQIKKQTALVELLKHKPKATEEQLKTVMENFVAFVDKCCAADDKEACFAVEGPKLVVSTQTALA

OD450 (牛血清白蛋白(BSA) (bovine) [1]): 2.39
OD450 (牛血清白蛋白(BSA) (bovine) [2]): 1.13
OD450 (牛血清白蛋白(BSA) (bovine) [3]): 1.42
OD450 (牛血清白蛋白(BSA) (bovine) [4]): 0.846
OD450 (牛血清白蛋白(BSA) (bovine) [5]): 0.15
OD450 (牛血清白蛋白(BSA) (bovine) [6]): 0.371
OD450 (牛血清白蛋白(BSA) (bovine) [7]): 0.677
OD450 (牛血清白蛋白(BSA) (bovine) [8]): 1.66
OD450 (牛血清白蛋白(BSA) (bovine) [9]): 0.981
OD450 (牛血清白蛋白(BSA) (bovine) [10]): 0.885
OD450 (牛血清白蛋白(BSA) (bovine) [11]): 1.9
OD450 (牛血清白蛋白(BSA) (bovine) [12]): 2.21
OD450 (牛血清白蛋白(BSA) (bovine) [13]): 0.538
OD450 (牛血清白蛋白(BSA) (bovine) [14]): 2.11
OD450 (牛血清白蛋白(BSA) (bovine) [15]): 0.454
OD450 (牛血清白蛋白(BSA) (bovine) [16]): 0.269
OD450 (牛血清白蛋白(BSA) (bovine) [17]): 0.161
OD450 (牛血清白蛋白(BSA) (bovine) [18]): 0.431
OD450 (牛血清白蛋白(BSA) (bovine) [19]): 0.332
OD450 (牛血清白蛋白(BSA) (bovine) [20]): 0.648
OD450 (牛血清白蛋白(BSA) (bovine) [21]): 1.64
OD450 (牛血清白蛋白(BSA) (bovine) [22]): 0.184
B1: BSA抗体B6 (antibody, V domains shown)
VH: VQLQESGAELVKPGASVKLSCKASGYTFTGQYVSWVKQRPGQGLEWIGEDNKSSRQGTEYSKATLTVDKSSSTAYMQLSSLTSEDSAVYYCTRDEVRSETYWGQGTTVTVSS
VL: DIVLTQSPATLSVTPGDSVSLSCRTEDKSLSYHWFQQKSHESPRLLIKDAYQKISGIPSRFNGCGSGTDFTLNINSVETEDFGMFFCQTSGWTHFGSGTKLEIKR
